Measured values reported in US20130259876A1 (published 2013).

Molecular target: T1, nucleoprotein of influenza A virus (NP383-391) peptide on HLA-B*27:05 (human)
T1 peptide: SRYWAIRTR
Assay: activation reporter or marker

B1: GRb (TCR, V domains shown)
Valpha: AQTVTQSQPEMSVQEAETVTLSCTYDTSENNYYLFWYKQPPSRQMILVIRQEAYKQQNATENRFSVNFQKAAKSFSLKISDSQLGDAAMYFCAYFSGGSNYKLTFGKGTLLTVNP
Vbeta: DTEVTQTPKHLVMGMTNKKSLKCEQHMGHRAMYWYKQKAKKPPELMFVYSYEKLSINESVPSRFSPECPNSSLLNLHLHALQPEDSALYLCASSQEVLDTQYFGPGTRLTVL
Q: Does B1 bind?
A: Result: recognises
